Experimental data reported in the Human Domainome abundance scans (Beltran et al. 2025).

B1: Homeobox protein SIX6, residues 134 to 184; numbered along this chain, O95475 (parent)
chain: CFKERTRHLLREWYLQDPYPNPSKKRELAQATGLTPTQVGNWFKNRRQRDR
B2: Death-inducer obliterator 1, residues 263 to 321; numbered along this chain, Q9BTC0 (parent)
chain: GYDPNALYCICRQPHNNRFMICCDRCEEWFHGDCVGISEARGRLLERNGEDYICPNCTI

Variants of: B1
Assay: abundance fitness (aPCA) (normalised: wild type 0, dead -1); higher = more abundant; growth selection in yeast, the domain comes from the species named
Conditions: Homo sapiens

Abundance fitness: each site, then its substitutions
D17: I -1.01, A -0.998, K -0.905, M -0.849, R -0.899, E -0.643, C -0.749, Q -0.678, V -0.934, Y -0.97, L -0.794, P -0.852, H -0.812, F -0.829, W -0.912, T -0.914, S -0.706
E12: C -0.262, D -0.124, L -0.458, N -0.428, S -0.362, W -0.413, M -0.204, P -1.01, R -0.529, Q -0.365, T -0.33, Y -0.454, G -0.393, K -0.504, A -0.427, I -0.271, H -0.455, V -0.389
L9: N -0.827, P -0.645, T -0.138, S -0.793, K -0.258, F -0.213, R -0.314, H -0.626, G -0.914, D -0.739, W -1.12, Q -0.35, E -0.751, M -0.238, A -0.387, V -0.328, I 0.145, Y -0.283
P18: F -1.11, I -0.776, K -0.42, D -0.734, M -0.334, L -0.968, G -0.824, C -0.314, H -0.442, E -0.769, A -0.358
C1: F 0.095, G 0, S 0.116
R11: L 0.008, E 0.125, N 0.27, G -0.119, I 0.051, W -0.129, P -0.958, Q 0.268, Y 0.097, V -0.249, S -0.077, M -0.019, A -0.379, F -0.63, T 0.054, H -0.487, K 0.066, D -0.612
R5: N -0.075, W -0.558, L -0.175, A -0.377, T 0.159, Q -0.74, G 0.082, M 0.078, D 0.116, I -0.172, V -0.315, K -0.263, Y -0.221, P -0.355, E 0.068, S 0.191
W13: G -0.157, H -0.046, V -0.181, K -0.528, I -0.216, A -0.003, P -0.994, C 0.011, M -0.121, R -0.608, Y -0.319, N 0.24, L -0.259, F -0.251, D -0.765, Q -0.021, E -0.067
L10: M -0.676, C -0.608, F -0.684, E -0.741, H -0.841, P -0.793, S -0.916, W -0.892, T -0.888, G -0.983, K -0.993, Q -0.613, N -0.722, A -1.02, V -1.12
F2: Y -0.11, Q -0.182, G -0.017, R -0.407, I 0.179, K 0.247, P -0.383, C 0.025, S 0.256, V -0.255, T 0.196, N 0.333, L -0.023, W -0.369, M 0.192, H -0.013, D 0.05, E 0.102, A -0.111
H8: C -0.032, S 0.135, G -0.1
L15: P -0.922, N 0.153, I -0.019, G -0.112, E -0.067, V 0.037, A 0.023, S -0.03, R -0.106, Y -0.185, C 0.49, K 0.003, D -0.418, Q -0.025, F -0.651
T6: N -0.498, H -0.356, E -0.619, F -0.691, Y -0.45, A -0.036, S -0.174, V 0.173, K -0.368, M -0.042, W -0.182, C -0.76, D -0.45, R -0.3, L -0.095, I 0.36, G -0.24, Q -0.168
K3: D 0.122, G -0.358, E -0.083, Y -0.672, Q -0.402, C -0.06, I -0.17, N -0.196, L -0.181, A -0.19, W -0.298, F -0.095, M -0.171, T 0.201, R -0.118, P -0.1, S 0.295, V -0.562
Y14: D -0.882, P -0.983, I -0.64, R -0.821, V -0.838, K -0.683, S -0.888, Q -0.918, A -0.987, C -0.994, W -0.847, L -0.634, E -0.788, T -1.06, F -0.071, H -0.974, G -0.571, M -0.825
Q16: F -0.27, R -0.172, H -0.406, A -0.027, P -0.782, V -0.067, S -0.127, L 0.421, C -0.495, Y -0.12, W -0.727, M -0.253
R7: L 0.051, P -0.359, E 0.236, G -0.22, V -0.058, Q 0.02, N -0.138, M 0.073, K 0.126, D 0.167, Y -0.147, T 0.01, A 0.033, I 0.073, F -0.221, S -0.084, C -0.306
E4: D 0.017, W -0.354, C -0.55, N -0.03, T -0.362, I -0.335, F -0.56, K -0.125, L -0.271, P -0.741, Q -0.277, R -0.361, H -0.587, S -0.276, M -0.131, Y -0.012, G -0.448, V -0.5

Variants of: B2
Assay: as above
Conditions: Homo sapiens

Abundance fitness: each site, then its substitutions
P55: T 0.083, R 0.019, Y -0.245
I59: F -0.122, D 0.618, L -0.077, R -0.046, N 0.329, A 0.001, K 0.424, S -0.015, V 0.279, G -0.218, W -0.414, H -0.14, M 0.026
T58: P 0.014, Y -0.289, G -0.006, C 0.194, L 0.127, D 0.138, H 0.046, A 0.084, M -0.115, I 0.111, K 0.123, R 0.3, S 0.047, V -0.055, F -0.264
N56: R -0.126, T -0.01, K -0.525, A -0.037, Q -0.155, Y 0.021, S 0.122, G 0.064, W -0.002, H -0.048, L -0.22, E -0.007, P -0.121, C -0.014, M -0.138
C57: D -0.498, G -1.12, V -0.904, M -0.989, Y -0.903, I -1.06, H -0.206, T -0.509, L -0.705, W -0.992, Q -0.842, A -1.04, R -0.769, P -0.828, S -0.848, E -0.483, N -0.582
